Legend:
[1] = molecular target: PPD1 (diphosphonucleotide phosphatase/phosphodiesterase) (Lupinus luteus, UniProt Q8VX11); details: active site, bidentate, bridging Fe and Mn; crystals from acetate pH 5.2 and Morpheus solution pH 6.5
[2] = molecular target: Diphosphonucleotide phosphatase/phosphodiesterase (PPD1) from yellow lupin (Lupinus luteus) seeds (yellow lupin (Lupinus luteus)); assay: SAXS; PPD1 in solution, 1-4 mg/ml, SWING beamline at SOLEIL; crystallographic hexamer and trimer models fitted with CRYSOL, ab initio shape reconstruction with GASBOR
[3] = molecular target: Diphosphonucleotide phosphatase/phosphodiesterase (PPD1) from yellow lupin (Lupinus luteus) seeds (yellow lupin (Lupinus luteus)); assay: crystal structure; hanging drop at room temperature, 5 mg/ml PPD1 in 20 mM sodium acetate, 0.5 M NaCl pH 5.2 with Morpheus solution 39 (pH 6.5); asymmetric unit a homotrimer, hexamer generated from crystallographic symmetry; 1.65 Å

PPD1 (diphosphonucleotide phosphatase/phosphodiesterase), sequence (Q8VX11 27-615): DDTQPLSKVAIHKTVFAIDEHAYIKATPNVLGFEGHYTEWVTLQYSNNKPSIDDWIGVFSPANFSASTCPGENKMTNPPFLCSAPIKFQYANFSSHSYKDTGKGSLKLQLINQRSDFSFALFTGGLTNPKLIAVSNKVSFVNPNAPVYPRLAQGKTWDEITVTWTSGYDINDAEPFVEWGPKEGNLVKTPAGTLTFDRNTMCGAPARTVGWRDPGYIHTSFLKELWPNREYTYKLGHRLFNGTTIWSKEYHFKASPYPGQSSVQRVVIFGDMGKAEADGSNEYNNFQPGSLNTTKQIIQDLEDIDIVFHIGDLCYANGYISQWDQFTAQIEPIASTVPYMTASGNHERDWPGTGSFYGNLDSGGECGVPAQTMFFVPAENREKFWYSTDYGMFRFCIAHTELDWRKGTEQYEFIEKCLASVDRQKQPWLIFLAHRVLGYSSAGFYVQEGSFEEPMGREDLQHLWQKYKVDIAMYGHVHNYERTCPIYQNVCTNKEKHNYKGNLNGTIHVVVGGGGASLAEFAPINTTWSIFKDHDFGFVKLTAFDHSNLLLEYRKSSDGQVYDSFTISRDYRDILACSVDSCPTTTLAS

stoichiometry N [2]	stoichiometry N [3]	Compound	X-ray crystal structure, 1.65 A [1]
		O=P(O)(O)O [phosphate]	active site of PPD1 with a phosphate ion bound to both of the metal atoms
6	6	Diphosphonucleotide phosphatase/phosphodiesterase (PPD1) from yellow lupin (Lupinus luteus) seeds (enzyme)	
